Source: the nanobody polyreactivity screen of Harvey et al. (2022)

Experiment: yeast display, Sf9 membrane polyspecificity reagent, FACS + sequencing; frameworks hold sequencing errors
Outline: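 Nanobodies from a synthetic yeast display library (Saccharomyces cerevisiae BJ5465), induced 36–48 hours with galactose, were stained 1 hour at 4 °C with 10% biotinylated, detergent-solubilized Sf9 membrane reagent, enriched on streptavidin microbeads, then FACS-sorted. Anti-HA (expression) and streptavidin (reagent binding) fluorescence set low and high (top ~1%) gates. Polyreactivity labels come from the gate of origin. Genes were colony-PCR amplified, MiSeq 2 × 250 sequenced and filtered by CDR length.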

| Sequence | polyreactivity (PSR sort gate) |
| --- | --- |
| QVQLVESGGGLVQAGGSLRLSCAASGSIFVGYAMGWYRQAPGKERELVASITTPGGSTHYADSVKGRFTISRDNAKNTVYLQMNSLKPEDTAVYYCAADSLSNGVLQYLPGYDYWGQGTQVTVSS | low polyreactivity |
| QVQLVESGGGLVQAGGSLRLSCASSGLTFTPNAMGWYRQAPGKEREFVAAITWRGGRTYYADSVKGRFTISRDNAKNTVYFQMKSLNPEDTAVYYCAVTYRPTYQLDYWGQGTQVTVSS | high polyreactivity |
| QVQLVESGGGLVQAGGSLRLSCAASGSTFDINAMGWYRQAPGKERELVAAINSDARTNYADSVKGRFTISRDNAKNTVYLLMNSLKPEDTAVYYCATDTSHSTYQYGYWGQGTQVSVSS | low polyreactivity |
| QVQLVESGGGLVQAGGSLRLSCAASGSTFWPYAMGWSRQAPGKERELVARINSGGNTNYADSVKGRFTISRDNAKNTVYLQMNSLKPEDTAVYYCAVRSLYEPRVYYRWVVVDGNYLGQGTQVTVSS | low polyreactivity |
| QVQLVESGGGLVQAGGSLSLSCAASGIFKYYMGWYRQAPGKERELVAGITKRGGSTYYADSVKGRFTISRDNAKNTVYLQKNSLKPEDTAVYYCNAVGPKRYDYWGQGTQVTVSS | high polyreactivity |
| QVQLVESGGGLVQAGGSLSLSCAASGSTFSIYTMGWYRQAPGKERELVAVITKSGGSTYYADSVKGRFTISRDNAKNTVYLQMNSLKPEDTAVYYCAARRRGARHDYWGQGTQVTVSS | high polyreactivity |
| QVQLEESGGGLVQAGGSLRLSCAASGRTFVYNAMGWYRQAPGKERELVAAITSGGRTYYADSVKGRFTISRDNAKNTVYLQMNSLKPEDTAVYYCAADHRGEYDYWGQGTQVTVSS | low polyreactivity |
| QVQLVESGGGLVQAGGSLRLSCAASGFIFPHYAMGGYRQAPGKERELIAAISKSGDSTYYADSVKGRFTISRDNAKNTVYLQMNSLKPEDTAVYYCARRGRSLRWKYDYWGQGTQVTVSS | low polyreactivity |
| QVQLVESGGGLVQAGGSLRLSCAASGSISYRYDKGWYRQAPGKEMELVATIRSGGSTNYADSVKGRFTISRDTAKNTVYLQMNSLKPEDTAVYYGAARLYARKKLHFSADSDYWGQGTQVTVSS | low polyreactivity |
| QVQLVESGGGLVQAGGSLRLSCAASGSIIGRYAMGWYRQAPGKERELVAAISTGGGRTYYADSVKGRFTISRDNAKNTVYLQLNSLKPEDTAVYYCNAGPYKGWGRMDYWGQGTQVTVSS | high polyreactivity |
| QVQLVESGGGLVQAGGSLRLSCAASGRTLYLYAMGWYRQAPGKERELVAAIDWRGTSTYYADSVKGRFTISRDNAKNTVYLQMNSLKPEDTAVYYCNAEGRWSSFTQRMDYWGQGTQVTVSS | low polyreactivity |
| QVHLVESGGGLVQAGGSLRLSCAASGIIFYYYTMGWYRQPPGKERELVASISRDGGSTHYADSVKGRFTISRDNAKNTVYLQMNSLKPEDTAVYYCAARYPTGSSYAFYRRKVYYWGQGTQVTVSS | high polyreactivity |
| QVQLVESGGGLVQAGGSLRLSCAASGSIFPPYAMGWYRQAPGKERELVAAIDWGGSSTYYADSVKGRFTISRDNAKNTVYLQMNSLKPEDTAVYYCAAEVVHGYYLYEYWGQGTQVTVSS | high polyreactivity |
| QVQLVESGAGLVQAGGSLRLSCAASGRIFYPYAMGRSRQAPGKERELVAAISGRGGRTYYADSVKGRFTISRDNAKNTVYLQMKSLKPEYTAVYYCNRVVSGYPGSDYWGNGTQVTVSS | high polyreactivity |
| QVQLVESGGGLVQAGGSLRLSCAASGRIFLYYAMGWYRQAPGKERELVAAITWSGGSTYYADSVKGRFTISRDNAKNTVYLQMNSLKPEDTAVYYCAADYLYGQTIYQVPSHYYYWGQGTQVTVSS | low polyreactivity |
| QVQLVESGGGLVQEGGSIRLSCAASGSTFFLYAMGWYRQAPGKERELVAAITYTDGDTYYADSVKGRFTISRDNAKNTVYLQMNSLKPEDNAVYYCNAGGDEPVYGSGYDYWGQGTQVTVSS | low polyreactivity |
| QVQLVESGGGLVQAGGSLRLSCAASGRIFRAIAMGLYRQAPGKERELVAAISFSGGGTYYADSVKGRFTISRDNAKYTVYLQMNSLKPEDTAVYYCAADQFWGGEEYDYWGQGTQVTVSS | low polyreactivity |
| QVQLVESGGGLVQAGGSLRLSCAASGLISRRNAMGWYRQAPGKERELVAAISTGSSTNYADSVKGRFTLSRDNAKNTVYLQMNSLKPEDSAVYYCAATQYWWSTLGIRDDYWGQGTQVTVSS | low polyreactivity |
| QVQLVESGGGLVQAGGSLRLSCACSGSTFRWYTMGWYRQAPGKECELVAAISISGTSTYYADSVNGRFTISRDNAKNTVYLQMNSLTPEDTAVYYCAADPPSRWGDYWGQGTQVTVSS | high polyreactivity |
| QGQLVESGGGLVQAGGSLRFSCADSGRIFHRYVMGWYRQAPGKERELVAAISWSSGSTSADSVKGRFTISRDNAKNTDYLQMNSLKPEDTAVYYCNASYNGVPARYDYWGQGTQVTVSS | low polyreactivity |
| QVQLVESGGGLVQAGGSLRLSCAASGRTFANNAMGWYRQAPGKERELVAAISNGDSTYADSVKGRFTISRDNAKNTVYLQMNSLKPEDTAVYYWATRTKEDYTGDYWGQGTQVTVSS | low polyreactivity |
| QVQLVESGGGLVQAGGSLRLSCAASGSIFDTYVMGWYRQAPGKERELVAAISSVSSTYADSVKGRFTISRDNAKNTVYLQLNSLKPVDTAVYYCAADSRSPGHDYWGQGTQVTVSS | low polyreactivity |

| Sequence | polyreactivity (PSR sort gate) |
| --- | --- |
| QVQLVESGGGLVQAGGSLRLSSAASGSTFAFYDMGWYRQAPGKERELVAGISSSGSTYYADSVKGRFTISRDNAKNTVYLQMNSLKPEDTAVYYCAAVLSVRVYGYDYWGQGTQVTVSS | low polyreactivity |
| QVQLVESGGGLVQAGGSLSLSCAATGSTFWWYAMGWYRQAPGKEREFVAAIRWSSGSTYYADSVKGRFTISRDNAKNTVYLQMNSLKPEDTAVYYCATDDTSNVYVDLDYWGQGTQVTVSS | high polyreactivity |
| QVQLVESGGGLVQAGGSLRLSCAASGGTFNRNAMGWYRQAPGKERELVAAISSSGGRTYYADSVKGRFTISRDNAKNTVYLQMNSLKPEDTAVYYCAAGRKGHGGAYDSWAQGTQVTVSS | high polyreactivity |
| QVQLVDSGGGLVQAGGSLRLRCAASGITFLGNDMGWYRQAPGKERELVAAISSGSTNYADSVKGRFTISRDNANKTVDLQMNSLKPADPAVYYCAADIRGGLSNYSPKDYDYWGQGTQVTVSS | low polyreactivity |
| QDQLVESGRGLVQEGGSLRLSCAASGSIFWSNGMGWYRQAPGKERELVATISSSGSDTYYAASVKGRFTISRDTAKNTVYFQMNSLKPEDTAVYYCNVYSIWGTYDYRGQGTQVTVSS | low polyreactivity |
| QVQLVESGGGLVQAGGSLRLSCAASGSTSFTYMGWYRQAPGTEREVVAAIDESGGSTYYADSVKGRFTISRDNAKNTVYLQMNTLKPEDTAGYYCTRRYGRSYRWGNGYWGQGTQVTVSA | low polyreactivity |
| QVQLVESGGGLVQAGGSLRLSCAASGRTFTTYAMGWYRQAPGKERELVAAISGSGGSTYYADSVKGRFTISRDNAKNTVYLQMNSLKPEDTAVYYCATAYYYHGGYYYPYDDDWGQGTQVTVSS | low polyreactivity |
| QVQLVESGGGLVQAGGSLRLSCAASGSTFSENAMGWYRQAPGKERELVADITNGGSTNYADSVKGRFTISRDNAKNTVYLQMNSLKPEDTAVYYCATDSYPGLNPDFDYWGQGTQVTVSS | low polyreactivity |
| QVQIVESGGGLVQAGGSLRLSCASSGSTMPAYTMGWYRQAPGKERELVADISRRGGSTYYADSVKGRFTISRDNAKNNVYLHMNSLKPEDTPVYYCATTAKKSYDYWGQGTHVTVSS | high polyreactivity |
| QVQHVESGGGLVQAVGSLRLSSAASGSTIRYYAMGWYRQAPGKERELVASISSSGGSTFYADSVKGRFTISRDNAKNSVYLQMNSLKPEDTAVYYCARRYHYNMDYWGQGTQVTVSS | high polyreactivity |
| QDQLVESGGGLVQAGGSHRLSCAASGSIFYRNAMGWFRQAPGKERELVAAISARGGRTNYADSVKGRFTISRDNAKNTVYLQMTSLKPEDTAVYYCNTADSWYHRSQAYDYWGQGTQVTVSS | high polyreactivity |
| QVQLVESGGGLDQAGGSLRLSCASGRIFKKNAMGWYRQAPGNERELVAGITISGGRTYYADSVKGRFTISRDNAKNTVYLQMNSVKPEDTAVYYCNAGPDRRVSYYRLLDHWGQGTQVTVSS | low polyreactivity |
| QVQLVESGGGLVQAGGSLRLSCAASGRIFGKYVMGWYRQAPGKERELVAAISSGGSTYADSVKGRFTISRDNAKNTFYLQMNCLKPEDTAVYYCNTRPRLYGYRPSQYTYDYWGQGTQVTVSS | high polyreactivity |
| QVQLVESGGGLVQAGGSLRLSCAASGRTLASNAMGWYRQAPGKERELVAAINRGGSTYYADSVKGRFTISRDNAKNTVYLQMNSLKPEDTAVYSCAVDRYRYPFDYWGQGTQVTVSS | low polyreactivity |
| QVQLVESGGGLVQAGGSLRLSCAASGRTFVNYAMGWYRQAPGKEREFVAAITNGGRTNYADSVKGRFTISRDNAKNTVYLQMNSLKPEDTAVYYCAARYRFGGIRRYNYWGQGTQVTVSS | high polyreactivity |
| QVQLVESGGGLVQAGGSLRLSCAASGSTFGLYAMGWYRQAPGKERELVAAITSTGGSTYYADSVKGRFTISRDNAKNTVYLQMNSLKPEDTAVYYCARDYRSGYDYWGQGTQVTVSS | low polyreactivity |
| QVQLVESGGGLVQAGGSLRLSCAASGLIFPIYTMGWYRQAPGKERELVAAISSRGGSTYYADSVKGRFTISRDNAKNTVYLQMNSLKPEDTAVYYFGSYDYSGQGTQVTVSS | high polyreactivity |
| QVQLVESGGGLVQAGGSLRLSCAASGNTLIVNAMGWYRQAPGKETELVAAITRDGRTNYADSVKGRFTISRDNAKNTVYLQMNSLKPEDTAVYYCAAEGVPDALDRDYWGQGTQVTVSS | low polyreactivity |
| QVQLVESGGGLVQAGGSLRLSCAASGSIFAKNAMGWYRQAPGKERELVAAIDLNGGSTYYADSVKGRFTISRDNAKNTVYLQMNSLKPEDTAVYYCADYYGHSSVIRSSPEYDSWGQGTQVTVSS | low polyreactivity |
| QVQLVESGGGLVQAGGSLRLSCAASGSTFGYNAMGWYRQAPGKERELVAAISSSGSSTSYADSVKGRFTISRDNAQNTVYLQMNSLKPEDTAVYYCAARWTRQRYRTSYYSWGQGTEVTVSS | high polyreactivity |
| QVQLVESGGGLVQAGGSLRLSCAASGSTFWGNAMGWYRQAPGKERELVATITDGGSTNYADSVKGRFTISRDNAKNTVYLQMNSLKPEDTAVYYCNAEEHYNTYVLHFRPYYVRHDYWGQGTQVTVSS | low polyreactivity |
